Measured values: article PMC5764952 (2018)

B1: Untagged murine saposin A (SapA) [mouse] / His6-tagged murine β-galactocerebrosidase (GALC) [modified: glycosylated; glycosylated] [mouse] (parent complex)
chain 1: MGKSLPCDICKTVVTEAGNLLKDNATQEEILHYLEKTCEWIHDSSLSASCKEVVDSYLPVILDMIKGEMSNPGEVCSALNLCQSLQE
chain 2: YVLDDSDGLGREFDGIGAVSGGGATSRLLVNYPEPYRSEILDYLFKPNFGASLHILKVEIGGDGQTTDGTEPSHMHYELDENYFRGYEWWLMKEAKKRNPDIILMGLPWSFPGWLGKGFSWPYVNLQLTAYYVVRWILGAKHYHDLDIDYIGIWNERPFDANYIKELRKMLDYQGLQRVRIIASDNLWEPISSSLLLDQELWKVVDVIGAHYPGTYTVWNAKMSGKKLWSSEDFSTINSNVGAGCWSRILNQNYINGNMTSTIAWNLVASYYEELPYGRSGLMTAQEPWSGHYVVASPIWVSAHTTQFTQPGWYYLKTVGHLEKGGSYVALTDGLGNLTIIIETMSHQHSMCIRPYLPYYNVSHQLATFTLKGSLREIQELQVWYTKLGTPQQRLHFKQLDTLWLLDGSGSFTLELEEDEIFTLTTLTTGRKGSYPPPPSSKPFPTNYKDDFNVEYPLFSEAPNFADQTGVFEYYMNNEDREHRFTLRQVLNQRPITWAADASSTISVIGDHHWTNMTVQCDVYIETPRSGGVFIAGRVNKGGILIRSATGVFFWIFANGSYRVTADLGGWITYASGHADVTAKRWYTLTLGIKGYFAFGMLNGTILWKNVRVKYPGHGWAAIGTHTFEFAQFDNFRVEAAR

Variants of: B1
Test: pull-down (immobilised GALC, Coomassie SDS-PAGE, quantified); in the presence of Tween-20; n = 3; read off a plot

Row | ratio to parent | Variant
1 | ~0.08 | chain 1 Q27K
2 | ~0.05 | chain 1 K22E
3 | ~0.06 | chain 1 E52K
4 | ~0.77 | chain 1 K66E
5 | ~0.81 | chain 1 W40F
6 | ~0.8 | chain 1 W40D
7 | ~0.77 | chain 1 W40S
8 | ~0.06 | chain 1 E28K
9 | ~1.1 | chain 1 E68K
10 | ~0.04 | chain 1 L31R
11 | ~0.13 | chain 1 L31N
12 | ~0.12 | chain 1 D55K
13 | ~0.21 | chain 1 E35R
14 | ~0.03 | chain 1 D63K
